Publication PMC12421802

Target: mutant MAP7D1 p.R201W (MAP7D1:c.601C>T), His/Myc-tagged (human) (UniProt Q3KQU3)
Assay: pull-down; 600 µg lysate of HEK293T cells overexpressing His/Myc-MAP7D1 (wt or mutant) incubated with MagneHis Ni particles in 100 mM HEPES, 10 mM imidazole, 500 mM NaCl, 4°C, 4 h; eluted with 500 mM imidazole; western blot with Myc-tag and β-tubulin antibodies; β-tubulin normalised to precipitated Myc-MAP7D1

Chain of UniProt Q3KQU3 (Q3KQU3 whole entry R201W): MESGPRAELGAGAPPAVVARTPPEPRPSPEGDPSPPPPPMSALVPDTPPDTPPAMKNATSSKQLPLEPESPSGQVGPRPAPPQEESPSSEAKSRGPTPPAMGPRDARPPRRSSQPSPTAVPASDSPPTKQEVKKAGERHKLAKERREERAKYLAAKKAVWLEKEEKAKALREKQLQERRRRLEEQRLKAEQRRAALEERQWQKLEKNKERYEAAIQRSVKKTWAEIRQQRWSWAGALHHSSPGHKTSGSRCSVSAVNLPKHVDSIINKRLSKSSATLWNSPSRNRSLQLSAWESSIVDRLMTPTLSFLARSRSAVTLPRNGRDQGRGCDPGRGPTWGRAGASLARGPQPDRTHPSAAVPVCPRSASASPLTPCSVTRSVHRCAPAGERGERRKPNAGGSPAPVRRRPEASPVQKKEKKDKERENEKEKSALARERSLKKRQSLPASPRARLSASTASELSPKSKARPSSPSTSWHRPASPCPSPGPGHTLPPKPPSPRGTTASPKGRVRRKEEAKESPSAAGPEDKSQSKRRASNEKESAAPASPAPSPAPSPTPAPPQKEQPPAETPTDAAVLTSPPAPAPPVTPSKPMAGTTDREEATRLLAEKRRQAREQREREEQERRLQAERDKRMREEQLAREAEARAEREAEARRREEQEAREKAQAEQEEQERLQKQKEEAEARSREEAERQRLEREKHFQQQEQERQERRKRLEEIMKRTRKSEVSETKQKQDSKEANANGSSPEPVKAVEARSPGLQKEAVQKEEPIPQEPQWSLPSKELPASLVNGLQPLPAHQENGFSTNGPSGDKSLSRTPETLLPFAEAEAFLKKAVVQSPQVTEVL

β-tubulin (tubulin of microtubules) (from UniProt P07437 1-444) (natural protein)
decrease of co-precipitated tubulin relative to wild-type MAP7D1: 40%
